Test results reported in PMC7954794, “Protein context shapes the specificity of SH3 domain-mediated interactions in vivo” (Nature Communications, 2021).

How the values were obtained:
Assay type in all cases: cell-based, Saccharomyces cerevisiae
[1] = test system: ABP1; test: DHFR-PCA on solid medium, bait ABP1 (Fig. 1B); details: bait ABP1, label = prey; 2-4 replicates
Description: Supplement 41467_2021_21873_MOESM8_ESM.xlsx, sheet "Fig1B" | column: medsize; medrep; Ratio; Score

[2] = test system: Hua2; test: Low-throughput liquid DHFR-PCA of selected Abp1 SH3 mutants (Fig. S3F); details: average
Description: Liquid DHFR-PCA low-throughput experiments were performed to validate the PPIs identified as affected by the SH3 domain deletions in the high-throughput solid DHFR-PCA screen (256 PPIs weaker or lost and 116 PPIs stronger or gained following domain deletions). Mating and the diploid selection were performed as described for the large-scale experiment, with the exception that the plates were in 384 formats. Following the second diploid selection, diploid cells were inoculated in a 96 v-shaped well plate using a robotically manipulated 96 pin tool in a synthetic complete medium with MSG at pH 6.0 with NAT and HPH. After 48 h of growth, optical density (OD) was read using a TECAN Infinite F200 Pro, and dilutions to 1 OD in sterile nanopure water were prepared. Cells were then diluted to 0.1 OD by combining 25 µl of cell suspension at OD = 1 and 225 µl of PCA selection media without agar in a 96-wells plate. Plates were incubated at 30 °C in a TECAN Infinite M Nano and OD was monitored each 15 min for 72 h. […]
Selected non-conserved positions (E6 , E13, N15 and N27) sensitivities to mutations for the Abp1-Hua2 PPI were tested in a low -throughput liquid DHFR -PCA assay. The growth of the mutants in the low -throughput experiment (average of four replicates of the total OD for each growth curve, y axis ) is compared to the mutants DMS score (x axis). […]

[3] = test system: Hua2; test: Deep mutational scanning of Abp1 SH3, Abp1-Hua2 DHFR-PCA (DMS score); details: Abp1-Hua2 DHFR-PCA; WT = 0; Fig. S3C-D
Outline: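 Abp1 SH3 variants from NNN codon saturation mutagenesis at all 58 positions were reintegrated genomically in yeast by CRISPR, pooled, and mated with DHFR F[3] prey strains. Diploids underwent two 72 h liquid DHFR-PCA selections at 30 °C, and mutant abundance was read by Illumina sequencing against the pre-selection reference.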

[4] = test system: PPIs identified as affected by the SH3 domain deletions; test: Liquid DHFR-PCA low-throughput validation of PPIs affected by SH3 deletion (Fig. S1D-E); details: Deletedscore/WTscore
Outline: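 Yeast diploids from DHFR-PCA mating grown 48 h in synthetic complete MSG medium pH 6.0 with NAT and HPH, normalized to 1 OD and diluted to 0.1 OD in liquid PCA selection medium. Growth followed by OD every 15 min for 72 h at 30 °C.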

B1: YBL039C (protein, UniProt P28274 1-579, looked up)
CTP synthase 1: MKYVVVSGGVISGIGKGVLASSTGMLMKTLGLKVTSIKIDPYMNIDAGTMSPLEHGECFVLDDGGETDLDLGNYERYLGVTLTKDHNITTGKIYSHVIAKERKGDYLGKTVQIVPHLTNAIQDWIERVAKIPVDDTGMEPDVCIIELGGTVGDIESAPFVEALRQFQFKVGKENFALIHVSLVPVIHGEQKTKPTQAAIKGLRSLGLVPDMIACRCSETLDKPTIDKIAMFCHVGPEQVVNVHDVNSTYHVPLLLLEQKMIDYLHARLKLDEISLTEEEKQRGLELLSKWKATTGNFDESMETVKIALVGKYTNLKDSYLSVIKALEHSSMKCRRKLDIKWVEATDLEPEAQESNKTKFHEAWNMVSTADGILIPGGFGVRGTEGMVLAARWARENHIPFLGVCLGLQIATIEFTRSVLGRKDSHSAEFYPDIDEKNHVVVFMPEIDKETMGGSMRLGLRPTFFQNETEWSQIKKLYGDVSEVHERHRHRYEINPKMVDELENNGLIFVGKDDTGKRCEILELKNHPYYIATQYHPEYTSKVLDPSKPFLGLVAASAGILQDVIEGKYDLEAGENKFNF
medrep (log2 median colony size normalized to plate background, PCA score) [1]: 3.877

B2: WT (protein, UniProt P15891 2-592, looked up)
Actin-binding protein: ALEPIDYTTHSREIDAEYLKIVRGSDPDTTWLIISPNAKKEYEPESTGSSFHDFLQLFDETKVQYGLARVSPPGSDVEKIIIIGWCPDSAPLKTRASFAANFAAVANNLFKGYHVQVTARDEDDLDENELLMKISNAAGARYSIQTSSKQQGKASTPPVKKSFTPSKSPAPVSKKEPVKTPSPAPAAKISSRVNDNNDDDDWNEPELKERDFDQAPLKPNQSSYKPIGKIDLQKVIAEEKAKEDPRLVQKPTAAGSKIDPSSDIANLKNESKLKRDSEFNSFLGTTKPPSMTESSLKNDDDKVIKGFRNEKSPAQLWAERKAKQNSGNAETKAEAPKPEVPEDEPEGEPDVKDLKSKFEGLAASEKEEEEMENKFAPPPKKSEPTIISPKPFSKPQEPVKAEEAEQPKTDYKKIGNPLPGMHIEADNEEEPEENDDDWDDDEDEAAQPPLPSRNVASGAPVQKEEPEQEEIAPSLPSRNSIPAPKQEEAPEQAPEEEIEEEAEEAAPQLPSRSSAAPPPPPRRATPEKKPKENPWATAEYDYDAAEDNELTFVENDKIINIEFVDDDWWLGELEKDGSKGLFPSNYVSLGN
ave_au (DMS validation) [2]: 93.0274 au
DMS score Hua2 [3]: 0

B3: SHO1 (protein, UniProt P40073 1-367, looked up)
High osmolarity signaling …: MSISSKIRPTPRKPSRMATDHSFKMKKFYADPFAISSISLAIVSWVIAIGGSISSASTNESFPRFTWWGIVYQFLIICSLMLFYCFDLVDHYRIFITTSIAVAFVYNTNSATNLVYADGPKKAAASAGVILLSIINLIWILYYGGDNASPTNRWIDSFSIKGIRPSPLENSLHRARRRGNRNTTPYQNNVYNDAIRDSGYATQFDGYPQQQPSHTNYVSSTALAGFENTQPNTSEAVNLHLNTLQQRINSASNAKETNDNSNNQTNTNIGNTFDTDFSNGNTETTMGDTLGLYSDIGDDNFIYKAKALYPYDADDDDAYEISFEQNEILQVSDIEGRWWKARRANGETGIIPSNYVQLIDGPEEMHR
Ratio ([4]; prey YJL128C_1): 0.6814
Ratio ([4]; prey YOR042W_1): 0.502
